Measurements published in paper PMC8006934.
pKd: −log10 of the molar value.

How the values were obtained:
[1] = target: FcγRIIb, human, C-terminally biotinylated (human) (UniProt P31994); assay: SPR; conditions: natural protein; remark: other sources report otherwise
[2] = target: FcγRIa, FcγRIIa/b, and FcγRIIIa; assay: SPR; IBIS MX96 array; C-terminally biotinylated FcRs spotted at different densities (100–1 nM) on one SensEye G-streptavidin sensor, blocked with biotinylated BSA; CRP injected in 2-fold dilutions from 0.98 to 2,000 nM in 20 mM Tris, 280 mM NaCl, 5 mM CaCl2, pH 8.0; KD by equilibrium fitting to Rmax = 500

Chain of FcγRIIb, human, C-terminally biotinylated (human) (P31994 43-217): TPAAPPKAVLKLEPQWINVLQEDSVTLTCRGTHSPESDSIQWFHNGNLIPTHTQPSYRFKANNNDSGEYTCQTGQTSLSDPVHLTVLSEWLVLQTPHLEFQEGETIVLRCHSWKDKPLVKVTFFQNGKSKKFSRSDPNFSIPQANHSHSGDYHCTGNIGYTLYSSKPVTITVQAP

Row | Substance | pKd [1] | pKd [2]
1 | C-reactive protein (native CRP from human fluid) (from UniProt P02741 19-224) | 5.38 | 
2 | C-reactive protein (native CRP from human fluid) (from UniProt P02741 19-224) (natural protein) |  | 5.31 to 5.47
